According to article PMC8904830, “Differential recognition of canonical NF-κB dimers by Importin α3” (Nature Communications, 2022):
Each block holds one molecule with its values, some of them ahead of it.

B1: ΔNLS-p65 (residues 1-290) (domain or fragment, human, UniProt Q04206 1-290, looked up)
chain: MDELFPLIFPAEPAQASGPYVEIIEQPKQRGMRFRYKCEGRSAGSIPGERSTDTTKTHPTIKINGYTGPGTVRISLVTKDPPHRPHPHELVGKDCRDGFYEAELCPDRCIHSFQNLGIQCVKKRDLEQAISQRIQTNNNPFQVPIEEQRGDYDLNAVRLCFQVTVRDPSGRPLRLPPVLSHPIFDNRAPNTAELKICRVNRNSGSCLGGDEIFLLCDKVQKEDIEVYFTGPGWEARGSFSQADVHRQVAIVFRTPPYADPSLQAPVRVSMQLRRPSDRELSEPMEFQYLP
notes: NF-κB p65 (RelA), human, residues 1-290 (stop codon at position D291), lacking the C-terminal NLS, untagged; source: E. coli BL21 DE3, purified (polyethyleneimine and ammonium sulfate precipitation, HiTrap SP, Superdex 200)
B2: ΔDBD-p65 (residues 191-316) (domain or fragment, human, UniProt Q04206 191-316, looked up)
chain: TAELKICRVNRNSGSCLGGDEIFLLCDKVQKEDIEVYFTGPGWEARGSFSQADVHRQVAIVFRTPPYADPSLQAPVRVSMQLRRPSDRELSEPMEFQYLPDTDDRHRIEEKRKRTYETFKSIMKKS
notes: also called p65 dimerization domain; source: E. coli BL21 DE3, purified (Glutathione Resin, PreScission cleavage, Superdex 200)
B3: ΔDBD-p50 (residues 243-366) (domain or fragment, human, UniProt P19838 243-366, looked up)
chain: KAPNASNLKIVRMDRTAGCVTGGEEIYLLCDKVQKDDIQIRFYEEEENGGVWEGFGDFSPTDVHRQFAIVFKTPKYKDINITKPASVFVQLRRKSDLETSEPKPFLYYPEIKDKEEVQRKRQKL
notes: also called p50 dimerization domain; source: E. coli BL21 DE3, purified (Glutathione Resin, PreScission cleavage, Superdex 200)
B4: ΔNLS-p50 (residues 41-351) (domain or fragment, human, UniProt P19838 41-351, looked up)
chain: GPYLQILEQPKQRGFRFRYVCEGPSHGGLPGASSEKNKKSYPQVKICNYVGPAKVIVQLVTNGKNIHLHAHSLVGKHCEDGICTVTAGPKDMVVGFANLGILHVTKKKVFETLEARMTEACIRGYNPGLLVHPDLAYLQAEGGGDRQLGDREKELIRQAALQQTKEMDLSVVRLMFTAFLPDSTGSFTRRLEPVVSDAIYDSKAPNASNLKIVRMDRTAGCVTGGEEIYLLCDKVQKDDIQIRFYEEEENGGVWEGFGDFSPTDVHRQFAIVFKTPKYKDINITKPASVFVQLRRKSDLETSEPKPFLYYP
notes: NF-κB p50, human, residues 41-351, lacking the C-terminal NLS, untagged; also called p50-ΔNLS; source: E. coli BL21 DE3, purified (polyethyleneimine and ammonium sulfate precipitation, HiTrap SP, Superdex 200)
B5: NF-κB p50 (residues 1-366) (domain or fragment, human, UniProt P19838 1-366, looked up)
chain: MAEDDPYLGRPEQMFHLDPSLTHTIFNPEVFQPQMALPTDGPYLQILEQPKQRGFRFRYVCEGPSHGGLPGASSEKNKKSYPQVKICNYVGPAKVIVQLVTNGKNIHLHAHSLVGKHCEDGICTVTAGPKDMVVGFANLGILHVTKKKVFETLEARMTEACIRGYNPGLLVHPDLAYLQAEGGGDRQLGDREKELIRQAALQQTKEMDLSVVRLMFTAFLPDSTGSFTRRLEPVVSDAIYDSKAPNASNLKIVRMDRTAGCVTGGEEIYLLCDKVQKDDIQIRFYEEEENGGVWEGFGDFSPTDVHRQFAIVFKTPKYKDINITKPASVFVQLRRKSDLETSEPKPFLYYPEIKDKEEVQRKRQKL
notes: NF-κB p50, human, residues 1-366 (Rel homology region with the C-terminal NLS); also called p50 RHR; source: E. coli BL21 DE3, purified (Glutathione Resin, PreScission cleavage, Superdex 200)
B6: IκBα (residues 67-287) (domain or fragment, UniProt P25963 67-287, looked up)
chain: KQQLTEDGDSFLHLAIIHEEKALTMEVIRQVKGDLAFLNFQNNLQQTPLHLAVITNQPEIAEALLGAGCDPELRDFRGNTPLHLACEQGCLASVGVLTQSCTTPHLHSILKATNYNGHTCLHLASIHGYLGIVELLVSLGADVNAQEPCNGRTALHLAVDLQNPDLVSLLLKCGADVNRVTYQGYSPYQLTWGRPSTRIQQQLGQLTLENLQMLPESEDEE
notes: IκBα, residues 67-287, untagged; source: recombinant, expressed and purified as previously described (pET-11a)
B7: NF-κB p65 (residues 1-306) (domain or fragment, human, UniProt Q04206 1-306, looked up)
chain: MDELFPLIFPAEPAQASGPYVEIIEQPKQRGMRFRYKCEGRSAGSIPGERSTDTTKTHPTIKINGYTGPGTVRISLVTKDPPHRPHPHELVGKDCRDGFYEAELCPDRCIHSFQNLGIQCVKKRDLEQAISQRIQTNNNPFQVPIEEQRGDYDLNAVRLCFQVTVRDPSGRPLRLPPVLSHPIFDNRAPNTAELKICRVNRNSGSCLGGDEIFLLCDKVQKEDIEVYFTGPGWEARGSFSQADVHRQVAIVFRTPPYADPSLQAPVRVSMQLRRPSDRELSEPMEFQYLPDTDDRHRIEEKRKRTY
notes: NF-κB p65 (RelA), human, residues 1-306 (Rel homology region with the C-terminal NLS), untagged; also called RelA; p65 RHR; source: E. coli BL21 DE3, purified (polyethyleneimine and ammonium sulfate precipitation, HiTrap SP, Superdex 200)

Legend:
[1] = target: T1, NF-κB p50/p65 heterodimer (human, UniProt P19838 1-366; Q04206 1-306); assay: SEC-SAXS; pre-assembled NF-κB dimer:ΔIBB-importin α3 complexes at 4.5-6.6 mg/ml on Superdex 200 10/300 GL; 20 mM Tris-HCl pH 7.0-7.5, 0.15-0.175 M NaCl, glycerol, 0.5 mM TCEP, 4 °C; mass from volume of correlation
T1 construct: NF-κB p50, human, residues 1-366; NF-κB p65 (RelA), human, residues 1-306, untagged; also called wild-type NF-κB; source: subunits from E. coli BL21 DE3, purified; assembled by incubating p50:p65 at 1:1.5 molar ratio; copies: 1 + 1

[2] = target: NF-κB p65/p65 homodimer (human) (UniProt Q04206); assay: as above
[3] = target: NF-κB p50/p50 homodimer (human) (UniProt P19838); assay: as above
[4] = target: ΔDBD-p50/p65 heterodimer (human) (UniProt P19838); assay: SEC; trimeric complex assembled from purified ΔIBB-importin α3 and ΔDBD-p50/p65; peak fraction analysed by SDS-PAGE and native agarose gel
[5] = target: T1, NF-κB p50/p65 heterodimer; assay: ELISA; NF-κB hetero/homodimers (200 ng) coated on MaxiSorp plates; His-importin α 1000 to 0 nM in PBST, room temperature 1 h; anti-6xHis-HRP; one-site specific binding fit
[6] = target: p50/ΔNLS-p65 heterodimer (human) (UniProt P19838); assay: as above
[7] = target: NF-κB p65/p65 homodimer (human) (UniProt Q04206); assay: as above
[8] = target: NF-κB p50/p50 homodimer (human) (UniProt P19838); assay: as above
[9] = target: ΔIBB-importin α3 (tag not told for these experiments) (human) (UniProt O00629); assay: native gel or EMSA; increasing molar excess of pre-assembled p50/p65 added to a fixed 10 μg (~108 pmoles) of ΔIBB-importin α1 or α3; 1.5% agarose gel, 4 °C, 2 h at 50 V, Coomassie
Sequence of ΔIBB-importin α3 (tag not told for these experiments) (human) (O00629 68-487, stated change not applied): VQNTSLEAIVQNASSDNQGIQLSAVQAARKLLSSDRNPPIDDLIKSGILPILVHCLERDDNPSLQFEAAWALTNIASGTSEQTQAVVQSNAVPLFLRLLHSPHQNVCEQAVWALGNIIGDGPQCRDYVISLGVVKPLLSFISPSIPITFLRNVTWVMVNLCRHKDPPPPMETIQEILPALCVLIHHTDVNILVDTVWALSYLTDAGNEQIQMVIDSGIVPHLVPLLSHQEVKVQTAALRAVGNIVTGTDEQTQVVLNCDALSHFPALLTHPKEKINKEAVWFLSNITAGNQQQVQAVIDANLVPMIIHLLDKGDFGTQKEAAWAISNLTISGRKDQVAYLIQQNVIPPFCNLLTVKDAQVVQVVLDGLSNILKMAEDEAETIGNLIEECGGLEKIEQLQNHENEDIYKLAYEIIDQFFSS

[10] = target: ΔIBB-importin α1 (tag not told for this experiment) (human) (UniProt P52292); assay: as above
[11] = target: the molecule itself; assay: SEC; homodimeric NF-κB complexes concentrated and injected on Superdex 200 16/60 in 20 mM Tris-HCl pH 7.5, 150 mM NaCl, 5 mM β-mercaptoethanol, 2% glycerol
[12] = target: B5; assay: assembly of heterodimers by co-incubation; purified p50 and p65 constructs incubated at 1:1.5 p50:p65 molar ratio, 25 °C 30 min, 37 °C 1 h, centrifuged at 12,000 x g; conditions: both partners purified
[13] = target: B4; assay: as above; conditions: both partners purified
[14] = target: B7; assay: as above; conditions: both partners purified
[15] = target: T1, NF-κB p50/p65 heterodimer; assay: native gel or EMSA; purified IκBα titrated against ~130 pmoles of pre-formed p50/p65 (Fig. 4a lanes 5-10); 1 h at 4 °C; 1.5% agarose gel; conditions: both partners purified

stoichiometry N [1]: 1
stoichiometry N [2]: 1
stoichiometry N [3]: 2
stoichiometry N [4]: 1
Molecule: ΔIBB-importin α3 (tag not told for these experiments) (from UniProt O00629 68-487) (domain or fragment)

Kd [5]: 45.8 nM
Kd [6]: 59.6 nM
Kd [7]: 35.2 nM
Kd [8]: 15.4 nM
Molecule: His-ΔIBB-importin α3 (from UniProt O00629 68-487) (domain or fragment)

stoichiometry N [9]: 1
stoichiometry N [10]: 1
Molecule: NF-κB p50/p65 heterodimer (from UniProt P19838 1-366; Q04206 1-306) (complex)

Molecule: B1
binding result [11]: binds
binding result [12]: binds
binding result [13]: binds

Molecule: B2
binding result [11]: binds

Molecule: B3
binding result [11]: binds
binding result [14]: binds

Molecule: B4
binding result [11]: binds

Molecule: B5
binding result [11]: binds

Molecule: B6
stoichiometry N [15]: 1

Molecule: B7
binding result [11]: binds
binding result [12]: binds
binding result [13]: binds
